What was measured:
[1] = biological target: PDL1-Fc fusion protein (human PDL1-Fc) (human); test: ELISA; OD on PDL1-Fc divided by OD on Fc protein, control group well (row 'blank')
[2] = biological target: PDL1-Fc fusion protein (human PDL1-Fc) (human); test: ELISA; PDL1-Fc coated, control group well (row 'blank'), anti-His detection, 405 nm
Fc protein = test: ELISA; Fc protein coated, control group well (row 'blank'), anti-His detection, 405 nm
[3] = biological target: Mouse PDL1-Fc protein (mouse); test: ELISA; mouse PDL1-Fc coated at 0.5 µg/well, control group well (row 'blank'), anti-His detection, 405 nm
Sequence of Mouse PDL1-Fc protein (mouse) (chain, as listed by the source limits assumed): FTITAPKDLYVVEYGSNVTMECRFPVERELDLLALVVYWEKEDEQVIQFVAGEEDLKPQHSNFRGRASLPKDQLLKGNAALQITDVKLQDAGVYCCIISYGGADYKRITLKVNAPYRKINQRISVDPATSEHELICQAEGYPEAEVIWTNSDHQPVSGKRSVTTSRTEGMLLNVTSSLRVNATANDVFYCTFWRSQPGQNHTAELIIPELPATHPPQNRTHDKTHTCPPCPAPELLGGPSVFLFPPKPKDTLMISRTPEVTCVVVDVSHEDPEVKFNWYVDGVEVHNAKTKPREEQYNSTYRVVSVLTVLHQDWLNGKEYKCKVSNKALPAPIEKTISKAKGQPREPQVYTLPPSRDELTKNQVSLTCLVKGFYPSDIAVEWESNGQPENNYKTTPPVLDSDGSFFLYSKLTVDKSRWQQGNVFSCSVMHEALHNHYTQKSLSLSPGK

[4] = biological target: PDL1-Fc fusion protein (human PDL1-Fc) (human); test: SPR, BIAcore X100; PDL1-Fc on CM5 chip, antibody as analyte, 25 C

Sequence of PDL1-Fc fusion protein (human PDL1-Fc) (human) (chain, as listed by the source limits assumed): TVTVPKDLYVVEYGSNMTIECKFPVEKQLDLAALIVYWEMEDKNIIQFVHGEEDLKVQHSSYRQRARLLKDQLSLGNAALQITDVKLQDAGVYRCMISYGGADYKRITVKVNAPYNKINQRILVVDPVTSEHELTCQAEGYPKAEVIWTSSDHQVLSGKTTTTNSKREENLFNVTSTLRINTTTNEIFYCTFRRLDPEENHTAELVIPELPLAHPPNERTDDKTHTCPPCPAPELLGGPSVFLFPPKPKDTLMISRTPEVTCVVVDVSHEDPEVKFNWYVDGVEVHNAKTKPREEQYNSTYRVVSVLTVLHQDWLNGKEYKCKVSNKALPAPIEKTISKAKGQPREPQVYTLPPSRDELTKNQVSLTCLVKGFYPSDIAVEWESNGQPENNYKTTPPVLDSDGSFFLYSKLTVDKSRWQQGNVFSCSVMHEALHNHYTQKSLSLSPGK

| Substance | OD (PDL1/Fc) [1] | OD (against PDL1) [2] | OD (against Fc) (Fc protein) | OD (against mouse PDL1) [3] | Kd [4] |
| --- | --- | --- | --- | --- | --- |
| control single domain antibody against other unrelated target (control group of the ELISA; table row 'blank') (VHH) | 0.75 | 0.054 OD | 0.072 OD | 0.096 OD | – |
| 243.55 (anti-PDL1 antibody of Roche) | – | – | – | – | 0.135 nM |
